Measurements from patent US20090156489A1 (Genentech, published 2009).

B1: human NGL-1-Fc (extracellular domain of human NGL-1 fused to human IgG1 Fc) (Fc fusion)
chain: QTCPSVCSCSNQFSKVICVRKNLREVPDGISTNTRLLNLHENQIQIIKVNSFKHLRHLEILQLSRNHIRTIEIGAFNGLANLNTLELFDNRLTTIPNGAFVYLSKLKELWLRNNPIESIPSYAFNRIPSLRRLDLGELKRLSYISEGAFEGLSNLRYLNLAMCNLREIPNLTPLIKLDELDLSGNHLSAIRPGSFQGLMHLQKLWMIQSQIQVIERNAFDNLQSLVEINLAHNNLTLLPHDLFTPLHHLERIHLHHNPWNCNCDILWLSWWIKDMAPSNTACCARCNTPPNLKGRYIGELDQNYFTCYAPVIVEPPADLNVTEGMAAELKCRASTSLTSVSWITPNGTVMTHGAYKVRIAVLSDGTLNFTNVTVQDTGMYTCMVSNSVGNTTASATLNVTAATTTPFSYFSTVTVETMEPSQDEARTTDNNVGPTPVVDWETTNVTTSLTPQSTRSTEKTFTIPVTDINSGIPGIDEVMKTTK
notes: also called NGL-1-ECD IgG Fc fusion protein; PRO331 ECD-Fc; not shown: human IgG1 Fc region
B2: recombinant human cMet-Fc fusion protein (R&D Systems) (Fc fusion)
chain: ECKEALAKSEMNVNMKYQLPNFTAETPIQNVILHEHHIFLGATNYIYVLNEEDLQKVAEYKTGPVLEHPDCFPCQDCSSKANLSGGVWKDNINMALVVDTYYDDQLISCGSVNRGTCQRHVFPHNHTADIQSEVHCIFSPQIEEPSQCPDCVVSALGAKVLSSVKDRFINFFVGNTINSSYFPDHPLHSISVRRLKETKDGFMFLTDQSYIDVLPEFRDSYPIKYVHAFESNNFIYFLTVQRETLDAQTFHTRIIRFCSINSGLHSYMEMPLECILTEKRKKRSTKKEVFNILQAAYVSKPGAQLARQIGASLNDDILFGVFAQSKPDSAEPMDRSAMCAFPIKYVNDFFNKIVNKNNVRCLQHFYGPNHEHCFNRTLLRNSSGCEARRDEYRTEFTTALQRVDLFMGQFSEVLLTSISTFIKGDLTIANLGTSEGRFMQVVVSRSGPSTPHVNFLLDSHPVSPEVIVEHTLNQNGYTLVITGKKITKIPLNGLGCRHFQSCSQCLSAPPFVQCGWCHDKCVRSEECLSGTWTQQICLPAIYKVFPNSAPLEGGTRLTICGWDFGFRRNNKFDLKKTRVLLGNESCTLTLSESTMNTLKCTVGPAMNKHFNMSIIISNGHGTTQYSTFSYVDPVITSISPKYGPMAGGTLLTLTGNYLNSGNSRHISIGGKTCTLKSVSNSILECYTPAQTISTEFAVKLKIDLANRETSIFSYREDPIVYEIHPTKSFISGGSTITGVGKNLNSVSVPRMVINVHEAGRNFTVACQHRSNSEIICCTTPSLQQLNLQLPLKTKAFFMLDGILSKYFDLIYVHNPVFKPFEKPVMISMGNENVLEIKGNDIDPEAVKGEVLKVGNKSCENIHLHSEAVLCTVPNDLLKLNSELNIEWKQAISSTVLGKVIVQPDQNFT
notes: extracellular domain; Bought protein; the construct is not described; not shown: Fc part of the bought fusion protein, not described
B3: human Netrin-G1-his (purified Netrin-G1 protein with a C-terminus His tag) (receptor, UniProt Q9Y2I2-1 29-409, looked up, not shown: small tags and cut ends)
chain: HYDLCKTQIYTEEGKVWDYMACQPESTDMTKYLKVKLDPPDITCGDPPETFCAMGNPYMCNNECDASTPELAHPPELMFDFEGRHPSTFWQSATWKEYPKPLQVNITLSWSKTIELTDNIVITFESGRPDQMILEKSLDYGRTWQPYQYYATDCLDAFHMDPKSVKDLSQHTVLEIICTEEYSTGYTTNSKIIHFEIKDRFAFFAGPRLRNMASLYGQLDTTKKLRDFFTVTDLRIRLLRPAVGEIFVDELHLARYFYAISDIKVRGRCKCNLHATVCVYDNSKLTCECEHNTTGPDCGKCKKNYQGRPWSPGSYLPIPKGTANTCIPSISSIGTNVCDNELLHCQNGGTCHNNVRCLCPAAYTGILCEKLRCEEAGSCGS
notes: Used purified in the pull-down and as a crude preparation (1 ug/ml) for coating in the solid phase assay; also called NetrinG-his

Key:
[1] = molecular target: T1, human NGL-1 expressed on COS7 cells (human, UniProt Q9HCJ2 43-640); experiment: cell surface binding assay on transfected COS7 cells, fluorescence microscopy
T1 construct: also called PRO331; Netrin-G1 Ligand
T1 sequence: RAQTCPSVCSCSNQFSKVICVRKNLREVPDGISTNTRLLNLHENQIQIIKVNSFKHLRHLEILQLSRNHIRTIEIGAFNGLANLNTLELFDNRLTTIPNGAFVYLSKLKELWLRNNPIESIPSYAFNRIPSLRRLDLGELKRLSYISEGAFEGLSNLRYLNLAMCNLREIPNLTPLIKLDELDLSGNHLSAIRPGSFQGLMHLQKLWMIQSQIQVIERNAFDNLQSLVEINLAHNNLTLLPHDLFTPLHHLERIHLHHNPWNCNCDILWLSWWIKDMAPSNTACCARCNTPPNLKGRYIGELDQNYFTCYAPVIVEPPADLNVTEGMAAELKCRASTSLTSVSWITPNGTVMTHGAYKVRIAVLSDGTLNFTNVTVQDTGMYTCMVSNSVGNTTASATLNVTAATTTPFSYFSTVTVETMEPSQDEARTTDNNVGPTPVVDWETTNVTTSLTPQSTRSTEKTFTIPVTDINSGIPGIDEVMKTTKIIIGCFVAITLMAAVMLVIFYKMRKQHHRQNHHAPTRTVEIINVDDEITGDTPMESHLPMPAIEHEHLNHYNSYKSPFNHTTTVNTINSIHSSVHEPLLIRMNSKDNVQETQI
Experimental: (§1) The resultant fusion proteins were expressed and used in binding assays over a panel of ˜400 putative cell surface transmembrane or GPI-anchored cell surface human proteins that were transiently expressed in COS7 cells. Purified ECD-Fc fusion proteins (0.5 μg/ml) or the crude baculovirus lysates were added to transiently transfected COS7 cells for 1-2 hours at room temperature. After 3 rinses with cold phosphate buffered saline (PBS), the bound protein was cross-linked to the cell surface with 4% paraformaldehyde. The bound Fc fusion protein was detected by biotinylated anti-human IgGFc and R-phycoerythrin-conjugated streptavidin (Jackson Immunoresearch). Cell surface staining was visualized by fluorescent microscopy and images were taken with the Penguin 800CL digital camera system (Pixera).
(§2) Although the NGL-1 and Netrin-G1 interaction appeared to be specific within the context of the screen, the classical Netrins and their known receptors, DCC and Unc5, were not included in the screen. Thus whether NGL-1 also interacts with Netrin-1 and its receptors was determined. Using the same cell surface binding assay, NGL-1, Netrin-G1, or Netrin-1 were expressed in COS7 cells (rows in FIG. 1a-i) and their ability to bind the IgG Fe fusion protein of NGL-1, Netrin-G1, or DCC (columns in FIG. 1a-i) was determined. […]

[2] = molecular target: T2, DCC expressed on COS cells (human, UniProt P43146 26-1447); experiment: cell surface binding assay on transfected COS7 cells, fluorescence microscopy (data not shown)
T2 construct: whole, on cells
Experimental: as §1, §2

[3] = molecular target: T3, human HGF protein (human, UniProt P14210 32-728, limits assumed); experiment: solution binding assay, pull-down with protein A beads, blot probed with anti-HGF (panel j)
T3 construct: also called hepatocyte growth factor
Experimental: (§3) Recombinant human NGL-1-Fc (a-c), human Netrin-G1-Fc (d-f) and human DCC-Fc (g-i) were used to label COS7 cells expressing human NGL-1 (a, d, g), human Netrin-G1 (b, e, h), chicken Netrin-1 (c, f, i). Specific binding of the transfected cells was evident for Netrin-G1-expressing cells labeled with NGL-1-Fc (b), for NGL-1-expressing cells labeled with Netrin-G 1-Fc (d), as well as for Netrin-1-expressing cells labeled with DCC-Fc (i). (j) The recombinant ECD-Fc fusion proteins (5 nM) indicated at the top (lanes 3-7) were incubated with human Netrin-G1-his (first row), chicken Netrin-1-his (second row) or human HGF protein (third row) in a solution binding assay. Complexes were pulled down by protein A-conjugated beads and probed with His-Probe (anti-His), antibodies to chicken netrin-1 and monoclonal antibodies to human HGF, as indicated. Direct and specific binding of NGL-1-Fc and netrin-G1-His (50 kDa) is shown in the first row. The netrin-1-His protein (75-85 kDa) binds strongly to DCC-Fc and Unc5-Fc (lanes 3 and 4, second row), extremely weakly to NGL-1-Fc (lane 5, second row), and not at all to human cMet-Fc (lane 6). HGF binds to cMet-Fc (lane 6, third row). Lane 1, directly loaded netrin-G1-His; lane 2, directly loaded netrin-1-His; lane 7, directly loaded HGF.
(§4) The question remained whether Netrin-G1 and NGL-1 directly interact with each other. […]

[4] = molecular target: B3; experiment: solid phase binding assay: Netrin-G1-his coated in microtiter wells, NGL-1-Fc in solution, OD450; specific binding = total minus cMet-Fc binding
Experimental: (§5) The binding affinity of NGL-1 and Netrin-G1 was then evaluated by a solid phase binding assay. Crude NetrinG-his protein (1 μg/ml) was coated in microtiter wells and non-specific binding sites saturated with 0.5% BSA. Purified NGL-1-Fc protein was serially diluted and added to the coated wells for 1 hour. Signals were detected with the biotinylated anti-human IgGFc antibody, horseradish peroxidase-conjugated strepavidin and a chromogenic substrate TMB (Kirkgaard and Perry Lab). The reactions were terminated with phosphoric acid and absorbance at 450 nm was measured. Non-specific binding was determined in parallel by omitting the microtiter well coating or by incubating the wells with the irrelevant cMet-Fc fusion protein, and dissociation constants were determined using saturation curves and Scatchard analysis (FIG. 2a). […] Cell 87, 175-185. (1996)].

[5] = molecular target: recombinant 6xHis-tagged chick Netrin-1 protein (R&D Systems) (chicken, UniProt Q90922 26-606); experiment: solution binding assay, protein A bead pull-down, blot probed with anti-chicken Netrin-1
Experimental: as §3, §4

[6] = molecular target: B2; experiment: solution binding assay, protein A bead pull-down, blot probed with HisProbe
Experimental: as §3, §4

[7] = molecular target: B1; experiment: solid phase binding assay, Netrin-G1-his coated wells, serial dilution of NGL-1-Fc, saturation curve and Scatchard analysis
Experimental: as §5

T2 sequence (P43146 26-1447): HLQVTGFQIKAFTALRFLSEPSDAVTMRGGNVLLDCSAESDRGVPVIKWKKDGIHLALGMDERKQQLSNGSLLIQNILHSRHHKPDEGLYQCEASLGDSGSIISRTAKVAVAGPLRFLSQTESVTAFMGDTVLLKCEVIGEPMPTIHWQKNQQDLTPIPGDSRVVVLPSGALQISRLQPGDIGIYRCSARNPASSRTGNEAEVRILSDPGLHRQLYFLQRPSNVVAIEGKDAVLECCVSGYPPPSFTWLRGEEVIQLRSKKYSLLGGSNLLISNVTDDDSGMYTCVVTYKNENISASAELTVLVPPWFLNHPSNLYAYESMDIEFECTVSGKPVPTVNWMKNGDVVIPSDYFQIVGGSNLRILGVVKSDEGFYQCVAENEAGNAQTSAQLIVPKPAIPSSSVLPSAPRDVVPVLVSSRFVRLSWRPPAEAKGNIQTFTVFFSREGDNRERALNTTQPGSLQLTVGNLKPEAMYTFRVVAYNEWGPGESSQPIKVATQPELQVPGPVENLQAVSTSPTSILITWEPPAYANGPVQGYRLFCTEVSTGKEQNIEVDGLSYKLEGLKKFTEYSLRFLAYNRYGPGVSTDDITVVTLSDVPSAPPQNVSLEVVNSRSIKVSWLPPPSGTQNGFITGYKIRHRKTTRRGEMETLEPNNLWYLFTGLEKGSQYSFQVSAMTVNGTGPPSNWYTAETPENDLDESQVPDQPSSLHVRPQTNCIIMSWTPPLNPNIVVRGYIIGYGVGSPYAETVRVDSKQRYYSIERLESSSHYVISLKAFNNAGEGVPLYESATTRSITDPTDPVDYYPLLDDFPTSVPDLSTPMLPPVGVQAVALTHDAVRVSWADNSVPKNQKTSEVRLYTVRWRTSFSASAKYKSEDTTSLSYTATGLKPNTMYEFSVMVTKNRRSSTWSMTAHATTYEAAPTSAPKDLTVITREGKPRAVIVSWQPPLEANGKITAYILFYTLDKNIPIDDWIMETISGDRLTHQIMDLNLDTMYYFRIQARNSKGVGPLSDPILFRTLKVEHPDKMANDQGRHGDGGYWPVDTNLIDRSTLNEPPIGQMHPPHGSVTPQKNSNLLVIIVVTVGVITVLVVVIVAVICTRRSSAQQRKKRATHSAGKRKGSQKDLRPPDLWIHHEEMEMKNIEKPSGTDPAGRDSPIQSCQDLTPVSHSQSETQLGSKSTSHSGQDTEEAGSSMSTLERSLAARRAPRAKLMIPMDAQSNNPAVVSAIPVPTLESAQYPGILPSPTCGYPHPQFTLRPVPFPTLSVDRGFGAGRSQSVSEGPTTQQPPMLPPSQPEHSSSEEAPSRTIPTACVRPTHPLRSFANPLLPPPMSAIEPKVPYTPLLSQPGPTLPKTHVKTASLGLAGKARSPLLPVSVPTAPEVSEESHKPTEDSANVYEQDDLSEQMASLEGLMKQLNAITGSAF
T3 sequence (P14210 32-728 limits assumed): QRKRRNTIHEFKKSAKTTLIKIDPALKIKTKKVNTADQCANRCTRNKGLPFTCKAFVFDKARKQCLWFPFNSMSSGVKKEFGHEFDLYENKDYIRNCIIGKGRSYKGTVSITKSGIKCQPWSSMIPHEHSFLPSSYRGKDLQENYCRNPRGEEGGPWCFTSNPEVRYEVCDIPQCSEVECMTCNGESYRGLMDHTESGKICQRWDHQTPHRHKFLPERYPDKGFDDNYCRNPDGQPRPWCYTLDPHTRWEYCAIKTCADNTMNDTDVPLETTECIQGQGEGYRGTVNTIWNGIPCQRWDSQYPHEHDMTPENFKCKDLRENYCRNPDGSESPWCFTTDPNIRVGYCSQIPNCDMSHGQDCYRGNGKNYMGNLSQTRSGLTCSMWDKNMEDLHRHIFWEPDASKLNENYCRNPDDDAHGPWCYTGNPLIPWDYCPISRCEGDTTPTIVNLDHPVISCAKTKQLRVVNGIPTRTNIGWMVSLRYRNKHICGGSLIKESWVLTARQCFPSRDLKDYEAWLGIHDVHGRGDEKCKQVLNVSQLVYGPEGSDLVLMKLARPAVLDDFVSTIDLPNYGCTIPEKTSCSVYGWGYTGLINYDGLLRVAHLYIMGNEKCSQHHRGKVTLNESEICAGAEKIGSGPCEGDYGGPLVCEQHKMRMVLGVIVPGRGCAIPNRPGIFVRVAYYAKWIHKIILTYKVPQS

B1: no binding [1]; no binding [2]; no binding (tested: 5 nM) [3]. The “EC50 (read off the curve)” value [4] was ~2 nM.

B2: no binding [5].

In the case of B3, the binding result [6] is reported as “no binding” and the Kd [7] is reported as 1.6 nM.
